Laboratory results published in patent publication US20090053230A1 (Genentech, published 2009).

Assays:
[1] = target: T1, recombinant human OX40L-flag polypeptide (human OX40 ligand extracellular domain fused to the flag peptide) (human, UniProt P23510 51-183); assay: competition ELISA, coated human OX40-IgG as competitor, Flag-tagged OX40L (printed 'OX40-Flag') in solution with antibody dilutions; plate coated with OX40-IgG; Flag-tagged ligand in solution with antibody
T1 construct: extracellular domain; Expressed from CHO cells (Genentech); also called human OX40L ECD-Flag polypeptide; human OX40L in solution; not shown: flag peptide
T1 sequence (looked up): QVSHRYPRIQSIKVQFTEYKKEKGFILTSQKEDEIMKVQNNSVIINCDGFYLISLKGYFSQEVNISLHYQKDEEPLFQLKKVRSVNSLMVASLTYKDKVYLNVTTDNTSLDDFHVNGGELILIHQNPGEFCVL

[2] = target: T1, recombinant human OX40L-flag …; assay: competition ELISA, OX40L ECD-Flag captured by anti-Flag; competitor human OX40-IgG-bio; OX40L ECD-Flag captured on anti-Flag plate; OX40-IgG-bio as competitor
Procedure: Competition ELISA analysis was conducted as follows to examine binding of anti-OX40L Mabs 8E12 and 13G5 to OX40L in solution, and to examine binding to cell-surface expressed OX40L. In some experiments, maxiSorp 96-well microwell plates (Nunc, Roskilde, Denmark) were coated overnight at 4° C. with 2 ug/ml anti-FlagM2 antibody (Sigma) in 50 mM carbonate buffer, pH 9.6. Plates were washed with PBS containing 0.05% polysorbate 20 and blocked with 0.5% bovine serum albumin, 10 ppm Proclin 300 (Supelco, Bellefonte, Pa.) in PBS at room temperature for 1 h. Plates were washed and 0.5 ug/ml of human OX40L ECD-Flag polypeptide was added. After a one-hour incubation, plates were washed. A mixture of human OX40-IgG-bio and serial dilutions of antibodies in PBS containing 0.5% bovine serum albumin, 0.05% polysorbate 20, 10 ppm Proclin 300 was added. The plates were incubated for 2 h at room temperature and washed. Bound human OX40-IgG-bio was detected by adding streptavidin-HRP (Amdex, Copenhagen, Denmark) followed by 3,3′,5,5′-tetramethyl benzidine (Kirkegaard & Perry Laboratories, Gaithersburg, Md.) as the substrate. […] Absorbance was read at 450 nm on a Titertek stacker reader (ICN, Costa Mesa, Calif.). The titration curves were fit using a four parameter regression curve fitting program (KaleidaGraph, Synergy software, Reading, Pa.). […]

[3] = target: T2, full-length human OX40L expressed on CHO cells (human, UniProt P23510 1-183); assay: cell-based competition ELISA on CHO cells expressing full-length human OX40L; competitor human OX40-IgG-bio, streptavidin-HRP
T2 construct: whole, on cells; also called CHO-OX40L cells; OX40L-expressing CHO cells
T2 sequence (looked up): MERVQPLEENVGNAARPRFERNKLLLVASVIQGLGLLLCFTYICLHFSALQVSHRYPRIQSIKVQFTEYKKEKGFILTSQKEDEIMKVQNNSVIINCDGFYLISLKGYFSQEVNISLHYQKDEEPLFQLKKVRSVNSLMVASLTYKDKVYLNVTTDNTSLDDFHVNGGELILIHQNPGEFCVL
Procedure: (§1) In other experiments, CHO cells expressing full-length human OX40L were grown in 50:50 F12/DMEM medium supplemented with 2 mM L-glutamine, 100 units/ml penicillin, 100 ug/ml streptomycin (supplemented medium), and 5% FBS (Gibco BRL Life Technologies, Gaithersburg, Md.) (growth medium) in a humidified 5% CO₂ incubator at 37° C. Cells were detached from culture plates using Accutase (ICN) and added to 96 well microwell plates at 300,000 cells/well. A mixture of human OX40-IgG and serial dilutions of antibodies in growth medium was added to the plates. After a one-hour incubation on ice, cells were washed by centrifuging the plates and removing the supernatant. Bound human OX40-IgG was detected using anti-Fc-HRP. […] In some experiments, human OX40-IgG-bio was used instead of human OX40-IgG. Bound human OX40-IgG-bio was detected using streptavidin-HRP. Plates were developed and read as described above.

mouse OX40L = target: T3, mouse OX40L (mouse, UniProt P43488 51-198, limits assumed); assay: ELISA, plates coated with mouse OX40L, goat anti-mouse Fc-HRP detection
T3 construct: Construct coated on the plate is not described
T3 sequence (looked up): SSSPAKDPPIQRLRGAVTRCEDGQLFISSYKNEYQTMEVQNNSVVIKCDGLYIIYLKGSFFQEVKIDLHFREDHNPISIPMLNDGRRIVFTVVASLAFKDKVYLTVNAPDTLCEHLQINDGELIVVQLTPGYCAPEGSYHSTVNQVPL
Procedure: (§2) To determine whether Mabs 8E12 and 13G5 bound mouse OX40L, ELISA plates were coated with mouse OX40L. Serial dilutions of 8E12 or 13G5 (0.004-4 ug/ml) were added. Goat anti-mouse Fc-HRP was used for detection. No binding was observed. In a different format, ELISA plates were coated with 8E12 or 13G5. Serial dilutions of mouse OX40L-Flag were added. Biotinylated anti-Flag followed by streptavidin-HRP was used for detection. No binding was observed.

[4] = target: T2, full-length human OX40L expressed on …; assay: competitive radioligand binding on OX40L-expressing CHO cells; antibody titrated against iodinated OX40-Fc (0.25 nM final), overnight at 4 C, gamma counting, 4-parameter fit
Procedure: Competitive binding experiments were performed to determine if anti-OX40L mAbs 8E12 and 13G5 competed with iodinated OX40-Fc (extracellular domain of OX40 receptor fused to Fc domain) for binding to OX40L expressed on CHO cells. 50 ug of […] was iodinated using a standard lactoperoxidase method. Antibodies 8E12 and 13G5 were serially diluted 1:4 in media buffer (Dubeccos F12:DMEM, 1% bovine serum albumin, 0.05% sodium azide and 25 mM Hepes buffer pH 7.2) starting at an initial concentration of 200 nM. Dilutions (50 uL) were performed in duplicate in a 96 microwell plate. Each well received 50 uL of iodinated […] (0.25 nM final concentration), was mixed and then the entire mixture was transferred to a 96 well tissue culture plate containing 30,000 OX40L-expressing CHO cells per well, which had been plated out the previous day. The plates were covered and incubated overnight at 4° C. The next day the wells (containing cells) were aspirated and washed twice with media buffer. 200 uL of 1N NaOH was added to each well to lyse the cells, shaken for 10 minute, and then transferred to a 96 well microtube. Each tube was counted in a Wallac gamma scintillation counter. The data was collected and plotted using Kaleidagraph. Curves were drawn using a 4-parameter fit.

[5] = target: T2, full-length human OX40L expressed on …; assay: Scatchard analysis, iodinated antibody on OX40L-expressing CHO cells
Procedure: Scatchard binding experiments were performed to determine if anti-OX40L mAbs 8E12 and 13G5 compete with each other for binding similar or overlapping epitopes on CHO cells expressing human OX40L, and to determine the binding affinity of the antibodies. 50 ug of anti-OX40L murine monoclonal antibodies 8E12 and 13G5 were iodinated using a standard lactoperoxidase method. Antibodies 8E12 and 13G5 were serially diluted 1:4 in media buffer (Dubeccos F12:DMEM, 1% bovine serum albumin, 0.05% sodium azide and 25 mM Hepes buffer pH 7.2) starting at an initial concentration of 200 nM. Two sets of dilution series (50 uL) were performed in duplicate in a 96 microwell plate. Wells from each set of dilutions received 50 uL of either iodinated 8E12 or 13G5 (0.25 nM final concentration). The plate was mixed and then the entire mixture was transferred to a 96 well tissue culture plate containing 30,000 OX40L-expressing CHO cells per well which had been plated out the previous day. The plates were covered and incubated overnight at 4° C. The next day the wells (containing cells) were aspirated and washed twice with media buffer. 200 uL of 1N NaOH was added to each well to lyse the cells, shaken for 10 minute, and then transferred to a 96 well microtube. Each tube was counted in a Wallac gamma scintillation counter. […]

[6] = target: T2, full-length human OX40L expressed on …; assay: cell-based competition ELISA on CHO cells expressing full-length human OX40L; competitor human OX40-IgG, anti-Fc-HRP
Procedure: as §1

[7] = target: T1, recombinant human OX40L-flag …; assay: SPR (BIAcore 3000), OX40L-Flag captured by immobilised anti-Flag, IgG as analyte
Procedure: Binding kinetics of mouse anti-OX40L antibodies to human OX40L were measured by surface plasmon resonance using Pharmacia BIAcore® 3000 (BIAcore AB, Uppsala, Sweden) at room temperature (Karlsson et al., 1994; Morton & Myszka, 1998). Anti-Flag antibody (anti-FlagM2, Sigma, St. Louis, Mo.) was immobilized to the sensor chip (CM5) through primary amine groups. A high flow rate was used in order to minimize mass transport effects. The carboxymethylated sensor chip surface matrix was activated by injecting 20 ul of a mixture of 0.025 M N-hydroxysuccinimide and 0.1 M N-ethyl-N′(dimethylaminopropyl) carbodiimide at 5 ul/min. 7 ul of 50 ug/ml anti-Flag in 10 mM sodium acetate, pH 4.5, were injected at 5 ul/min twice. After coupling, unoccupied sites on the chip were blocked by injecting 20 ul of 1M ethanolamine, pH 8.5. The running buffer was PBS containing 0.05% polysorbate 20. 5 ul of 4 ug/ml OX40L-Flag were injected at 30 ul/min to bind […] to the anti-Flag on the chip. For kinetic measurements, two-fold serial dilutions (6.2-50 nM) of mouse […] 8E12 (PUR 9333) and 13G5 (PUR 9306) in running buffer were injected over flow cell for 2 minutes at a flow rate of 30 ul/min and the bound anti-OX40L antibody was allow to dissociate for 20 minutes. […] Data were analyzed using a 1:1 binding model using global fitting. […]

mouse OX40L-Flag = target: T4, mouse OX40L-Flag (mouse, UniProt P43488 51-198, limits assumed); assay: ELISA, plates coated with antibody, serial dilutions of mouse OX40L-Flag, biotinylated anti-Flag and streptavidin-HRP detection
T4 construct: not shown: Flag tag
T4 sequence (looked up): T3 sequence (looked up)
Procedure: as §2

EC50 [1]: ~1.9 nM
EC50 [2]: ~1.4 nM
EC50 [3]: ~11 nM
binding result (mouse OX40L): no binding (tested: 0.004-4 ug/ml)
IC50 (read off the curve) [4]: 2.5 to 3 nM
Kd [5]: 0.92 nM
EC50 [6]: ~20 nM
koff [7]: < 5e-06 s⁻¹
binding result (mouse OX40L-Flag): no binding
B1: mouse anti-human OX40L monoclonal antibody 8E12 (antibody, V domains shown)
VH: QVQLQQPGAELVRPGASVKLSCKASGYTFTSYWLNWVKQRPGQGLEWIVMIDPSDSETHYNQVFKDKATLTVDKSSSTAYMQLSSLTSEDSAVYYCIRGRGNFYGGSHAMEYWGQGTLLTVSS
VL: DILMTQTPLSLPVSLGDQASISCRSSQSIVHGNGNTYLEWHLQKPGQSPKLLIYRVSNRFSGVPDRFSGSGSGTDFTLKINRVEAEDLGVYYCFQGSHVPYTFGGGTKVEIKR
notes: Tested as mouse IgG purified from hybridoma medium by Protein A; also called Mab 8E12; anti-OX40L mab 8E12
